# Test results as given in PMC10397807, “Automated simulation-based membrane protein refinement into cryo-EM data” (Biophysical Journal, 2023).
# B1: maltoporin (natural protein, E. coli (endogenous in C43(DE3)), UniProt P02943 26-446, looked up)
# chain: VDFHGYARSGIGWTGSGGEQQCFQTTGAQSKYRLGNECETYAELKLGQEVWKEGDKSFYFDTNVAYSVAQQNDWEATDPAFREANVQGKNLIEWLPGSTIWAGKRFYQRHDVHMIDFYYWDISGPGAGLENIDVGFGKLSLAATRSSEAGGSSSFASNNIYDYTNETANDVFDVRLAQMEINPGGTLELGVDYGRANLRDNYRLVDGASKDGWLFTAEHTQSVLKGFNKFVVQYATDSMTSQGKGLSQGSGVAFDNEKFAYNINNNGHMLRILDHGAISMGDNWDMMYVGMYQDINWDNDNGTKWWTVGIRPMYKWTPIMSTVMEIGYDNVESQRTGDKNNQYKITLAQQWQAGDSIWSRPAIRVFATYAKWDEKWGYDYTGNADNNANFGKAVPADFNGGSFGRGDSDEWTFGAQMEIWW
# notes: maltoporin of Escherichia coli, endogenously expressed; native sample purified from E. coli; model fitted from PDB 1MAL and deposited as PDB 8B7V; source: endogenous, E. coli C43(DE3)
# Target: the molecule itself
# Experiment: cryo-EM structure; single-particle reconstruction of maltoporin solubilized in DDM, C3 symmetry imposed, 3.0 Å
protein,measurement,value
B1,binding result,binds
